Experimental findings from the supplement of paper PMC10567573 are described below.

First the molecules themselves.
B1: PLAGL1 (parent)
chain: TKEKKHQCDHCERCFYTRKDVRRH
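Further: lentivirally expressed fusions sorted by FACS into six bins by GFP to DsRed ratio, PSI derived from sequencing read proportions per bin multiplied by bin number.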

In the series the parent is B1. The series can be described thus: protein stability index of a GFP-peptide fusion (GPS, HEK-293T) (PSI 1-6); higher = more stable. Particulars: c terminus: a fixed tail appended.
With TKEKKHQCDHCERCFYTRKDVRTH, the protein stability index stood at 3.71.

In the case of TKEKKHQCDHCERCFYTRKDVRFH, the protein stability index came to 3.33.

Consider TKEKKHQCDHCERCFYTRKDVRMH, for which the protein stability index is 3.79.

TKEKKHQCDHCERCFYTRKDVRSH: the protein stability index amounted to 3.7.

With TKEKKHQCDHCERCFYTRKDVRIH, the protein stability index came out at 3.67.

In the case of TKEKKHQCDHCERCFYTRKDVREH, the protein stability index stood at 4.26.

For the variant TKEKKHQCDHCERCFYTRKDVRPH, the protein stability index worked out at 4.04.

Regarding TKEKKHQCDHCERCFYTRKDVRYH, the protein stability index amounted to 3.53.

Turning to TKEKKHQCDHCERCFYTRKDVRQH, the protein stability index was 3.84.

Regarding TKEKKHQCDHCERCFYTRKDVRAH, the protein stability index came to 4.13.

Consider TKEKKHQCDHCERCFYTRKDVRKH, for which the protein stability index amounted to 4.27.

On to TKEKKHQCDHCERCFYTRKDVRCH, for which the protein stability index is 3.49.

Regarding TKEKKHQCDHCERCFYTRKDVRWH, the protein stability index is 3.08.

Turning to TKEKKHQCDHCERCFYTRKDVRDH, the protein stability index is 4.49.

Consider TKEKKHQCDHCERCFYTRKDVRVH, for which the protein stability index was 3.08.

In the case of TKEKKHQCDHCERCFYTRKDVRLH, the protein stability index was found to be 3.92.

Regarding TKEKKHQCDHCERCFYTRKDVRNH, the protein stability index worked out at 4.01.

On to TKEKKHQCDHCERCFYTRKDVRHH, for which the protein stability index stood at 3.85.

TKEKKHQCDHCERCFYTRKDVRGH: the protein stability index worked out at 4.31.

TKEKKHQCDHCERCFYTRNDVRRH: the protein stability index was 3.3.

Consider TKEKKHQCDHCERCFYTRRDVRRH, for which the protein stability index was 4.12.

With TKEKKHQCDHCERCFYTRPDVRRH, the protein stability index turned out to be 3.33.

In the case of TKEKKHQCDHCERCFYTRGDVRRH, the protein stability index is 3.52.

In the case of TKEKKHQCDHCERCFYTRHDVRRH, the protein stability index is 3.55.

For the variant TKEKKHQCDHCERCFYTREDVRRH, the protein stability index is 4.03.

TKEKKHQCDHCERCFYTRVDVRRH: the protein stability index was determined as 2.95.

For the variant TKEKKHQCDHCERCFYTRFDVRRH, the protein stability index was determined as 3.05.

TKEKKHQCDHCERCFYTRQDVRRH: the protein stability index was found to be 3.89.

TKEKKHQCDHCERCFYTRMDVRRH: the protein stability index was 3.06.

Turning to TKEKKHQCDHCERCFYTRADVRRH, the protein stability index turned out to be 3.66.

Turning to TKEKKHQCDHCERCFYTRLDVRRH, the protein stability index came out at 2.9.

Take TKEKKHQCDHCERCFYTRSDVRRH: the protein stability index came out at 3.17.

Take TKEKKHQCDHCERCFYTRYDVRRH: the protein stability index was 3.25.

Take TKEKKHQCDHCERCFYTRCDVRRH: the protein stability index worked out at 3.22.

Consider TKEKKHQCDHCERCFYTRDDVRRH, for which the protein stability index is 3.39.

Consider TKEKKHQCDHCERCFYTRTDVRRH, for which the protein stability index was determined as 3.4.

With TKEKKHQCDHCERCFYTRIDVRRH, the protein stability index turned out to be 2.52.

In the case of TKEKKHQCDHCERCFYTRWDVRRH, the protein stability index is 3.13.

On to TKEKKHQCDHCERCFYTRKDPRRH, for which the protein stability index was found to be 2.97.

Take TKEKKHQCDHCERCFYTRKDCRRH: the protein stability index was 3.85.

For the variant TKEKKHQCDHCERCFYTRKDNRRH, the protein stability index was found to be 3.54.

Consider TKEKKHQCDHCERCFYTRKDMRRH, for which the protein stability index is 3.52.

On to TKEKKHQCDHCERCFYTRKDKRRH, for which the protein stability index is 3.88.

Regarding TKEKKHQCDHCERCFYTRKDERRH, the protein stability index was found to be 3.9.

In the case of TKEKKHQCDHCERCFYTRKDIRRH, the protein stability index worked out at 3.25.

TKEKKHQCDHCERCFYTRKDLRRH: the protein stability index is 3.74.

For TKEKKHQCDHCERCFYTRKDQRRH, the protein stability index came out at 3.25.

In the case of TKEKKHQCDHCERCFYTRKDGRRH, the protein stability index was found to be 3.65.

With TKEKKHQCDHCERCFYTRKDFRRH, the protein stability index was found to be 3.47.

TKEKKHQCDHCERCFYTRKDARRH: the protein stability index was 3.68.

Take TKEKKHQCDHCERCFYTRKDYRRH: the protein stability index was determined as 3.98.

With TKEKKHQCDHCERCFYTRKDTRRH, the protein stability index was 3.34.

Take TKEKKHQCDHCERCFYTRKDSRRH: the protein stability index was found to be 3.01.

TKEKKHQCDHCERCFYTRKDDRRH: the protein stability index came to 3.53.

Consider TKEKKHQCDHCERCFYTRKDWRRH, for which the protein stability index stood at 3.58.

For the variant TKEKKHQCDHCERCFYTRKDHRRH, the protein stability index came to 3.7.

On to TKEKKHQCDHCERCFYTRKDRRRH, for which the protein stability index was found to be 3.95.

Turning to TKEKKHQCDHCERCFYTNKDVRRH, the protein stability index came to 3.58.

Turning to TKEKKHQCDHCERCFYTTKDVRRH, the protein stability index is 3.29.

On to TKEKKHQCDHCERCFYTPKDVRRH, for which the protein stability index was 3.13.

TKEKKHQCDHCERCFYTWKDVRRH: the protein stability index amounted to 3.27.

On to TKEKKHQCDHCERCFYTYKDVRRH, for which the protein stability index came to 3.2.

On to TKEKKHQCDHCERCFYTQKDVRRH, for which the protein stability index worked out at 3.38.

For TKEKKHQCDHCERCFYTVKDVRRH, the protein stability index was 3.27.

For TKEKKHQCDHCERCFYTSKDVRRH, the protein stability index was determined as 3.5.

Take TKEKKHQCDHCERCFYTRKDVVRH: the protein stability index turned out to be 3.76.

Regarding TKEKKHQCDHCERCFYTRKDVARH, the protein stability index is 3.54.

Consider TKEKKHQCDHCERCFYTRKDVPRH, for which the protein stability index was 3.62.

In the case of TKEKKHQCDHCERCFYTRKDVSRH, the protein stability index was determined as 3.71.

TKEKKHQCDHCERCFYTRKDVFRH: the protein stability index came to 3.51.

As for TKEKKHQCDHCERCFYTRKDVERH, the protein stability index worked out at 4.73.

For TKEKKHQCDHCERCFYTRKDVGRH, the protein stability index came out at 3.61.

For TKEKKHQCDHCERCFYTRKDVHRH, the protein stability index was determined as 3.96.

TKEKKHQCDHCERCFYTRKDVWRH: the protein stability index amounted to 3.27.

Regarding TKEKKHQCDHCERCFYTRKDVDRH, the protein stability index came out at 4.31.

In the case of TKEKKHQCDHCERCFYTRKDVCRH, the protein stability index was 4.07.

As for TKEKKHQCDHCERCFYTRKDVKRH, the protein stability index was determined as 3.76.

Consider TKEKKHQCDHCERCFYTRKDVNRH, for which the protein stability index turned out to be 4.04.

TKEKKHQCDHCERCFYTRKDVQRH: the protein stability index came out at 3.51.

Turning to TKEKKHQCDHCERCFYTRKDVYRH, the protein stability index is 3.69.

Regarding TKEKKHQCDHCERCFYTRKDVTRH, the protein stability index is 4.04.

With TKEKKHQCDHCERCFYTRKDVMRH, the protein stability index is 3.65.

Turning to TKEKKHQCDHCERCFYTRKDVLRH, the protein stability index is 3.84.

As to TKEKKHQCDHCERCFYTRKDVIRH, the protein stability index turned out to be 3.48.

In the case of TKEKKHQCDHCERCFYTRKDVRRY, the protein stability index was determined as 2.79.

Regarding TKEKKHQCDHCERCFYTRKDVRRT, the protein stability index was 3.63.

Consider TKEKKHQCDHCERCFYTRKDVRRG, for which the protein stability index was 3.52.

With TKEKKHQCDHCERCFYTRKDVRRD, the protein stability index is 3.84.

Regarding TKEKKHQCDHCERCFYTRKDVRRI, the protein stability index was 3.24.

For TKEKKHQCDHCERCFYTRKDVRRF, the protein stability index came to 3.06.

Take TKEKKHQCDHCERCFYTRKDVRRA: the protein stability index turned out to be 3.79.

Consider TKEKKHQCDHCERCFYTRKDVRRW, for which the protein stability index is 3.03.

Consider TKEKKHQCDHCERCFYTRKDVRRM, for which the protein stability index amounted to 2.88.

Regarding TKEKKHQCDHCERCFYTRKDVRRK, the protein stability index is 3.62.

Take TKEKKHQCDHCERCFYTRKDVRRQ: the protein stability index is 3.58.
